Reference: paper PMC12022308 (Nature Communications, 2025)

Target: the molecule itself
Assay: cryo-EM structure

B1: L-protein (homodimeric BchL protein, electron donor component of DPOR) (natural protein, Rhodobacter sphaeroides, UniProt Q9RFD6 1-297, looked up)
chain: MSPKDLTIPTGADGEGSVQVHLDEADKITGAKVFAVYGKGGIGKSTTSSNLSAAFSILGKRVLQIGCDPKHDSTFTLTGSLVPTVIDVLKDVDFHPEELRPEDFVFEGFNGVMCVEAGGPPAGTGCGGYVVGQTVKLLKQHHLLDDTDVVIFDVLGDVVCGGFAAPLQHADQAVVVTANDFDSIYAMNRIIAAVQAKSKNYKVRLAGCVANRSRATDEVDRFCKETNFRRLAHMPDLDAIRRSRLKKKTLFEMDEDQDVLAARAEYIRLAESLWRGLDPIDPHSLPDRDIFELLGFD
  stoichiometry N: 2
